Experimental data published in US7329737 (DYAX, dated 2008).

Target: T1, hK1 (human tissue kallikrein 1), recombinant (human, UniProt P06870 25-262)
T1 construct: Expressed in P. pastoris from KLK1 cDNA and purified; enzymatically active; also called KLK1; Recombinant (Pichia) Kallikrein
Experiment: SPR

Binder	Kd [nM]	koff [s⁻¹]	kon [M⁻¹ s⁻¹]
M0104-A12 (Fab, V domains shown) VH: EVQLLESGGGLVQPGGSLRLSCAASGFTFSHYNMGWVRQAPGKGLEWVSRIGSSGGKTAYADSVKGRFTISRDNSKNTLYLQMNSLRAEDTAVYYCAKTNYDFWSGYLPNPNPYPLDYWGQGTLVTVSS VL: DIQMTQSPSSLSASVGDRVTITCRASQSIGASLNWYQQKPQKAPKLLIYTASNLQSGVPSRFSGSGSGTDFTLTISSLLPEDFATYYCQQNYRGRTFGQGTKLEIKR	3.66	0.00246	673000
M0115-G12 (Fab, V domains shown) VH: EVQLLESGGGLVQPGGSLRLSCAASGFTFSPYFMEWVRQAPGKGLEWVSGISSSGGNTLYADSVKGRFTISRDNSKNTLYLQMNSLRAEDTAVYYCARDRFGNYYGSGSKLQHDAFDIWGQGTMVTVSS VL: DIQMTQSPVTLSLSPGDRATLSCRASQSVSFNLAWYQHKPGQAPRLLMFDASNRATGIPDRFSGSGSGTDFTLTIKRLEPEDFAVYYCQQYGTSPFTFGPGTNVDVKR	5.73	0.000865	151000
M0098-H04 (Fab, V domains shown) VH: EVQLLESGGGLVQPGGSLRLSCAASGFTFSHYVMSWVRQAPGKGLEWVSRIYPSGGQTYYADSVKGRFTISRDNSKNTLYLQMNSLRAEDTAVYYCARGAGWFDPWGQGTLVTVSS VL: AQSELTQPPSASGSPGQSLTISCTGGRRDIGNYNYVSWYQQHPGKAPRLIIYDVRKRPSGVPDRFSGSKSGNVAFLTVSGLQTDDEADYYCGSYTGTSNVFGSGTTVTVLG	5.53	0.00255	461000
M0131-G03 (Fab, V domains shown) VH: EVQLLESGGGLVQPGGSLRLSCAASGFTFSHYVMQWVRQAPGKGLEWVSSIYPSGGSTRYADSVKGRFTISRDNSKNTLYLQMNSLRAEDTAMYYCARFNVGFDLWGRGTLVTVSS VL: AQSELTQPPSASGSPGQSLTISCTGGRRDIGNYNYVSWYQQHPGKAPRLIIYDVRKRPSGVPDRFSGSKSGNVAFLTVSGLQTDDEADYYCGSYTGTSNVFGSGTTVTVLG	7.49	0.00256	341000
M0093-C02 (Fab, V domains shown) VH: EVQLLESGGGLVQPGGSLRLSCAASGFTFSWYAMHWVRQAPGKGLEWVSWISPSGGQTKYADSVKGRFTISRDNSKNTLYLQMNSLRAEDTAVYYCARAKVLRYFDWLLGGDAFDIWGQGTMVTVSS VL: DIQMTQSPGTLSLSPGDRATLSCRASQSVGSDYLAWYQQKPGQAPRLLIFAASTRATGIPDRFSGSGSATDFTLTISSLEPEDFAVYFCQQYASPPRTFGQGTKVEIKR	5.72	0.00103	180000
M0097-F04 (Fab, V domains shown) VH: EVQLLESGGGLVQPGGSLRLSCAASGFTFSPYQMWWVRQAPGKGLEWVSSISSSGGLTRYADSVKGRFTISRDNSKNTLYLQMNSLRAEDMAVYYCARVKLNYYGSGSYSLDAFDIWGQGTNGHRLKRLHQGPIGLPASTLLQEH VL: AQYELTQPPSASGTPGQRVTISCSGSSSNIGSNYVHWYQQLPGTAPKLLIYRNNRRPSGVPDRFSGSKSGTSASLAISGLRSEDEADYYCAAWDDSLSGLVVFGGGTKLTVLGQPKAAP	3.26	0.000346	106000
M0126-F11 (Fab, V domains shown) VH: EVQLLESGGGLVQPGGSLRLSCAASGFTFSHYWMMWVRQAPGKGLEWVSWIGSSGGFTWYADSVKGRFTISRDNSKNTLYLQMNSLRAEDTAVYYCARGNGGFDSWGQGTLVTVSS VL: not shown	5.05	0.00144	285000
M0128-E07 (Fab, V domains shown) VH: EVQLLESGGGLVQPGGSLRLSCAASGFTFSFYPMSWVRQAPGKGLEWVSYIWPSGGATRYADSVKGRFTISRDNSKNTLYLQMNSLRAEDTAVYYCARGNGGFDSWGQGTLVTVSS VL: not shown	30.4	0.0147	483000
M0104-H12 (Fab, V domains shown) VH: EVQLLESGGGLVQPGGSLRLSCAASGFTFSYYQMSWVRQAPGKGLEWVSRIGPSGGLTSYADSVKGRFTISRDNSKNTLYLQMNSLRAEDTAVYYCARVGVWYGMDVWGQGTLVTVSS VL: AQSELTQPPSASGSPGQSVTISCTGTSSDVGAYNYVSWYQQHPGKAPKLIIYEVNKRPSGVPDRFSASKSGNTASLTVSGLQAEDEADYYCNSYAGSNSLIFGGGTKLTVLG	2.43	0.00138	567000
M0111-C10 (Fab, V domains shown) VH: EVQLLESGGGLVQPGGSLRLSCAASGFTFSRYVMSWVRQAPGKGLEWVSSIRSSGGRTMYADSVKGRFTISRDNSKNTLYLQMNSLRAEDTAVYYCARVGVWYGMDVWGQGTTVTVSS VL: DIQMTQSPSSLSASVGDRVTITCRASQSISSYLNWYQQKPEKAPQLLIFAASSLQSGVPSRFSGSGSGTDFTLTISSLQPEDFATYYCQQSYNAPWTFGQGTKVEIRR	3.29	0.00341	1.04e+06
M0094-E08 (Fab, V domains shown) VH: EVQLLESGGGLVQPGGSLRLSCAASGFTFSFYAMVWVRQAPGKGLEWVSYISPSGGATWYADSVKGRFTISRDNSKNTLYLQMNSLRAEDTAVYYCAKPSRPRYYYDSSGYYSSAFDIWGQGTMVTVSS VL: AQSVLTQPASVSGSPGQSITISCTGTSSDVGAYNYVSWYQQHPGKVPELMIYDVSNRPSGVSHRFSGSKSGNTASLTISGLQAEDDADYYCSSFTSRKTWVFGTGTKVTVLG	3.34	0.00053	159000
M0121-A07 (Fab, V domains shown) VH: EVQLLESGGGLVQPGGSLRLSCAASGFTFSHYLMYWVRQAPGKGLEWVSRIYPSGGATSYADSVKGRFTISRDNSKNTLYLQMNSLRAEDTAVYYCAKSGSWYSFDYWGQGTLVTVSS VL: DIQMTQSPGTLSLSPGERATLSCRASQSVSSNYLAWYQQKPGQAPRLLMYGASYRATGIPDRFSGSGSGTDFTLTISSLQPEDFATYYCQQSYSTPWTFGQGTKVEIKR	4.75	0.00438	922000
M0132-D02 (Fab, V domains shown) VH: EVQLLESGGGLVQPGGSLRLSCAASGFTFSHYPMDWVRQAPGKGLEWVSYIGPSGGSTRYADSVKGRFTISRDNSKNTLYLQMNSLRAEDTAVYYCARHVPPGTWGQGTLVTVSS VL: AQSALTQPRSVSGSPGQSVTISCTGTSSDVNYVSWYQQHPGKAPKLMIYAVTKRPSGVPDRFSGSKSGNTASLTVSGLQAEDEADYYCSSYAGSNNLVFGGGTKLTVLG	4.22	0.00303	717000

Now from value to binder:

Kd [nM]	koff [s⁻¹]	kon [M⁻¹ s⁻¹]	Binder
4.26	0.000728	171000	M0138-C04 (Fab, V domains shown) VH: EVQLLESGGGLVQPGGSLRLSCAASGFTFSHYHMQWVRQAPGKGLEWVSGIRSSGGVTGYSDSVKGRFTISRDNSKNTLYLQMNSLRAEDTAVYYCAREVTMVRGVYYYYYGMDVWGQGTTVTVSS VL: AQYELTQPASVSGSPGQSITISCTGTSSDVGAYNYVSWYQHHPGKAPKLLIYDVSNRPSGISSRFSGSKSGNTASLTISGLQAEDEADYYCSSYTSSYTWVFGGGTKLTVLS
3.36	0.00089	265000	M0138-B10 (Fab, V domains shown) VH: EVQLLESGGGLVQPGGSLRLSCAASGFTFSHYSMTWVRQAPGKGLEWVSRIYPSGGRTGYADSVKGRFTISRDNSKNTLYLQMNSLRAEDTAVYYCATDSGGYYYGMDVWGQGTTVTVSS VL: not shown
4.73	0.000923	195000	M0132-D08 (Fab, V domains shown) VH: EVQLLESGGGLVQPGGSLRLSCAASGFTFSHYLMYWVRQAPGKGLEWVSWIGPSGGHTMYADSVKGRFTISRDNSKNTLYLQMNSLRAEDTAVYYCARLQQGLDYWGQGTLVTVSS VL: DIQMTQSPSTLSASVGDRVTITCRASQSISNWLAWYQQKPGKAPKLLIYMASTLESGVPSRFSGSGSGTEFTLTISSLQPADFATYYCQQYNSYSVTFGGGTKVEIKR
2.66	0.000625	235000	M0135-F03 (Fab, V domains shown) VH: EVQLLESGGGLVQPGGSLRLSCAASGFTFSHYVMIWVRQAPGKGLEWVSWIYPSGGNTIYADSVKGRFTISRDNSKNTLYLQMNSLRAEDTATYYCARVGVWYGMDVWGQGTTVTVSS VL: DIQMTQSPATLSLSPGERATLSCRASQSVSSYLAWYQQKPGQAPRLLIYDASNRATGIPARFSGSGSGTDFTLTISSLEPEDFAVYYCQQRSNWPSPIAFGQGTRLEIKR
3.6	0.00108	301000	M0139-F09 (Fab, V domains shown) VH: EVQLLESGGGLVQPGGSLRLSCAASGFTFSHYVMAWVRQAPGKGLEWVSRIGPSGGYTMYADSVKGRFTISRDNSKNTLYLQMNSLRAEDTAVYYCARVGVWYGMDVWGQGTTVTVSS VL: DIQMTQSPGTLSLSPGERATLSCRASQSVSSSYLAWYQQKPGQAPRLLIYGASSRATGIPDRFSGSGSGTDFTLTISSLQLEDFGTYFCQQSYRSPYTFGQGTKVDIKR
3.1	0.000376	121000	M0135-C12 (Fab, V domains shown) VH: EVQLLESGGGLVQPGGSLRLSCAASGFTFSRYHMSWVRQAPGKGLEWVSSIRPSGGSTIYADSVKGRFTISRDNSKNTLYLQMNSLRAEDTAVYYCAREPRRYYYDSSGSYDAFDIWGQGTMVTVSS VL: AQSELTQPPSMSGTPGQRVIISCSGSNSNIGNNFVYWYQQVAGSAPKLLIFRNNQRPSGVPDRFTVSKSGASASLAIGGLRSEDEADYYCAAWDDSLSGVLFGGGTKVTVLG
4.5	0.00198	440000	M0132-H11 (Fab, V domains shown) VH: EVQLLESGGGLVQPGGSLRLSCAASGFTFSHYQMHWVRQAPGKGLEWVSRIRSSGGATSYADSVKGRFTISRDNSKNTLYLQMNSLRAEDTAVYYCARGGGYSYYFDYWGQGTLVTVSS VL: AQYELTQPPSASGTPGQRVTISCSGSSSNIGSNYVYWYQQLPGTAPKLLIYRNNQRPSGVPDRFSGSKSGTSASLAISGLRSEDEADYYCAAWDDSLSGHAVFGGGTQLTVLG
